Test system: intracellular proteome of ENR+CD and ENR organoids
Assay: LC-MS/MS TMT proteomics of ENR+CD versus ENR organoids
Assay type: cell-based, C57BL/6 mice
Conditions: for Average logFC: ENR+CD versus ENR organoids, sample pairs in aggregate (n=4, 2 technical replicates from two biological donors); for M1-1 Log2 Median Normalized / M1-2 Log2 Median Normalized / M2-1 Log2 Median Normalized / M2-2 Log2 Median Normalized: protein abundance ratio ENR+CD versus ENR organoids, LC-MS/MS TMT proteomics; for M1-1 Log2 Median Normalized: sample pair M1-1; for M1-2 Log2 Median Normalized: sample pair M1-2; for M2-1 Log2 Median Normalized: sample pair M2-1; for M2-2 Log2 Median Normalized: sample pair M2-2; for change: up = enriched in ENR+CD, down = enriched in ENR, FDR<0.05 and log fold change cut-off

Molecule	Average logFC	M1-1 Log2 Median Normalized	M1-2 Log2 Median Normalized	M2-1 Log2 Median Normalized	M2-2 Log2 Median Normalized	change
Q7TNV0 (protein, UniProt Q7TNV0 1-380, looked up, full-length) MSAAAAPAAEGEDAPVPPSSEKEPEMPGPREESEEEEEDDEDDDEEDEEEEKEKSLIVEGKREKKKVERLTMQVSSLQREPFTVTQGKGQKLCEIERIHFFLSKKKPDELRNLHKLLYNRPGTVSSLKKNVGQFSGFPFEKGSTQYKKKEEMLKKFRNAMLKSICEVLDLERSGVNSELVKRILNFLMHPKPSGKPLPKSKKSSSKGSKKERNSSGTTRKSKQTKCPEILSDESSSDEDEKKNKEESSEDEEKESEEEQPPKKTSKKEKAKQKATAKSKKSVKSANVKKADSSTTKKNQKSSKKESESEDSSDDEPLIKKLKKPPTDEELKETVKKLLADANLEEVTMKQICKEVYENYPAYDLTERKDFIKTTVKELIS	−1.42	−1.8	−0.726	−1.2915	−1.861	down
Q7TQD2 (protein, UniProt Q7TQD2 1-218, looked up, full-length) MADSKAKPAKAANKTPPKSPGDPARAAKRLSLESEGANEGATAAPELSALEEAFRRFAVHGDTRATGKEMHGKNWSKLCKDCHVIDGKNVTVTDVDIVFSKIKGKSCRTITFEQFQEALEELAKKRFKDKSSEEAVREVHRLIEGRAPVISGVTKAVSSPTVSRLTDTSKFTGSHKERFDQSGKGKGKAGRVDLVDESGYVPGYKHAGTYDQKVQGGK	1.241	1.195	1.666	0.7645	1.337	up
Q80V42 (protein, UniProt Q80V42 1-443, looked up, full-length) MDRARLWLGLLLPVVAALDFRYHHQEGMEAFLKSVAQNYSSITHLHSIGKSVRGRNLWVLVVGQTPKEHRVGIPEFKYVANMHGDETVGRELLLHLIDYLVSSYRKDPEITHLIDSTRIHIMPSMNPDGFEAVQKPDCYYSNGRENYNNYDLNRNFPDAFENNNVTKQPETLAIMEWLKTETFVLSANLHGGALVASYPFDNGVQATGTLLSRSLTPDDDVFQHLAYTYASRNPNMTKGDQCKNKRNFPNGIINGYSWYPLQGGMQDYNYIWAQCFEITLELSCCKYPREEKLPLFWNDNKASLIEYIKQVHLGVKGQVFDQSGAPLPNVIVEVQDRKHICPFRTNKLGEYYLLLLPGSYVINVTVPGHDSYLTKLTIPGKSQPFSALKKDFHLPLRWQPDSISVSNPSCPMIPLYKFMPSHSAATKPSLGVFFMTLLYVFFK	1.366	1.517	1.383	1.3355	1.228	up
Q80XU3 (protein, UniProt Q80XU3 1-234, looked up, full-length) MSRPVRNRKVVDYSQFQESDDADEDYGRDSGPPAKKIRSSPREAKNKRRSGKNSQEDSEDSEEKDVKTKKDDSHSAEDSEDEKDDHKNVRQQRQAASKAASKQREMLLEDVGSEEEPEEDDEAPFQEKDSGSDEDFLMEDDDDSDYGSSKKKNKKMVKKSKPERKEKKMPKPRLKATVTPSPVKGKAKVGRPTASKKSKEKTPSPKEEDEEAESPPEKKSGDEGSEDEASSGED	−1.313	−1.892	−0.72	−1.5225	−1.116	down
Q80Z37 (protein, UniProt Q80Z37 1-1033, looked up, full-length) MGSQPPPPGSPLSREEGEAPPLVPAEEGRRRSRRVRLRGSCRHRPSLLSRRELASNGPAVPATASSEIMASAAKEFKMDNFSPKAGTSKLQQTVPADASPDSKCPICLDRFDNVSYLDRCLHKFCFRCVQEWSKNKAECPLCKQPFDSIFHSVRAEDDFKEYVLRPSYNGSFTNPEVRRFRYRTTMTRERSASLYSPSSTVSRRTTTPPDSGVLFEGLGISTRPRDVDIPQFMRQMALRGPTTTDERSLRKIQEQDIINFRRTLYRAGVRVRSIEDGGRYRDISAEFFRRNPACLHRLVPWLKRELTVLFGAHGSLVNIVQHIIMSNVTRYDLESQAFVSDLRPFLLNRTEHFIHEFISFARSPFNMAAFDQHANYDCPPSSEEGSRSDSSVITISPDEAETQELDMNASTVRQAPWDDETPGPSYSSSEQVHVGVSSLLNSSDSSDEELVSGGTTSQIQGVQTNDDVNNDSDSSSDNCVIVGFVKPLAERTPELVELSSDSEELGPYEKVETVKTQEQEQSYSSGDSDVSRASSPRSVLGKDEQMSKSHCDSDTRISSKKEEKRSTSLPAPRDSSSTRGDRVCSPYNHRHRKGGRSRSSDSRSQSRSGHDPRNHRKHGKKRLRNKRSRSRESSSRPRARKDKKRSRTRDSSWSRRSQTLSLSSGSTSRSRSRSSDHGKRRSRSRNRDRYYLRNNYGSKYKWEYTYYSRNKDRDGYESSYRRRTLSRAHYSRQSSSPEFRIQSFSERTNARKKNHSERKYYYYERRRSRSVSSNRSRTTSAGPDRVRNEKPGGKRKYKTRHLEGTSEEAQPAREFTSKGKDSHYQKSKLDGSYKNESDSFSDSRSSDRETKHKRRRRRTRSLSVEIVYEGKATDTSKHHKKKKKKHKKKHKKHHGDNTSRSPVVITIDSDSDGESEVKAGIECSNGSLPQPIQDGAFETKDVVTIEDELGVLDKDCDVTALADDLSTSQTVENCDSPAVPVEQTLDVREESTFASDLESQSSNVSIQAEPSRPVPSPRTSLSSVSPGRDCDVS	1.193	1.31	0.914	1.7665	0.782	up
Q8BK48 (protein, UniProt Q8BK48 1-559, looked up, full-length) MPLYKLLGWLNAVACGVLLLVLHVQGQDSASPIRNTHTGQVRGSLVHVKDTDIAVHTFLGIPFAKPPVGPLRFAPPEAPEPWSGVRDGTSHPNMCLQNDNLMGSEDLKMMNLILPPISMSEDCLYLNIYVPAHAHEGSNLPVMVWIHGGALTVGMASMYDGSMLAATEDVVVVAIQYRLGVLGFFSTGDQHAKGNWGYLDQVAALRWVQQNIVHFGGNPDRVTIFGESAGGTSVSSHVVSPMSQGLFHGAIMESGVAVLPDLISSSSEMVHRIVANLSGCAAVNSETLMCCLRGKNEAEMLAINKVFKIIPGVVDGEFLPKHPQELMASKDFHPVPSIIGINNDEYGWILPTIMDPAQKIEEITRKTLPAVLKSTALKMMLPPECGDLLMEEYMGDTEDPETLQAQFREMKGDFMFVIPALQVAHFQRSHAPVYFYEFQHRPSFFKDFRPPYVKADHGDEIFLVFGYQFGNIKLPYTEEEEQLSRRIMKYWANFARHGNPNSEGLPYWPVMDHDEQYLQLDIQPSVGRALKARRLQFWTKTLPQKIQELKGSQERHKEL	−1.69	−1.646	−1.907	−2.1625	−1.046	down
Q8BM96 (protein, UniProt Q8BM96 1-785, looked up, full-length) MRSCRSCNVRVLVAIVCGLLTGIVLGLGIWRMVIRINRGIFVPVPSIPVQFCRNGGTWQNGRCICTEEWKGLRCTIANFCENSTDGEFTFGSIPVGRYGPSLQTCEPGTLNAGSPKATRLCNVSEFGNIELQNVTKGSCNINLQTLEIQINNQTASAENISREAQVLTADASKLTAQNITSATTVVGQIFGKANNESQAKKTAIATVSQILDASEDVFQKAAEMDNSKSFSNLIKQMENYSYSQGDQTVVEPNIAIQSVTRDDNSGPSVLFSVQKGSSNSLVSGRILINKTANGLNPDGQTELQILLNTGENRKSCGFMVYQNHKLFQSKTFTATSDFSQKIISSKINESEQQRQNKVSVEMVFNPTYDKRELRLHSYACVYWNFLINDWDTQGCQKTGNTTEFLRCNCSHTTNFAVLMSFKKDYKYPKSLDILSNIGCALSIAGLALTILFQILTRKIRKTSVTWVLVSLCSSMLIFNLLFVFGIENSNKNLKTSDSDINVKPENNKIPESDTIETPNPSCTAIAALLHYFLLVTFTWNGLSATQLYFLLIRTMKPLPRHFIIFISLVGWGVPAIIVGVTIGSIYALSGNKRYWELDYRQEEICWLAVPKDNDYARSPLLWSFIIPVTIILITNITIFVIITVKVLWKNNQNLTSTKKVSSLKKVFSTLSIAVVFGVTWILAYAMLISNDDIRIVFSYIFCLFNTTQGLQIFILYTVRTKVFQSEASKILKSLSSSFDRTKPMPSITPLKLRVRMYNMLRSLPSLNERFRLLEPSGMTEETSLS	−1.142	−0.895	−1.193	−1.2285	−1.142	down
Q8BPQ7 (protein, UniProt Q8BPQ7 1-1093, looked up, full-length) MASVPAEAETRQRLLRTVKKEVKQIMEEAVTRKFVHEDSSHIISFCAAVEACVLHGLRRRAAGFLRSNKIAALFMKVGKGFPPAEELSRKVQELEQLIESARNQIQGLQENVRKLPKLPNLSPLAIKHLWIRTALFGRVLDKIVHYLVENSSKYYEKEALLMDPVDGPILASLLVGPCALEYTKMKTADHFWTDPSADELVQRHRIHSSHLRQDSPTKRPALCIQKRHSSGSMDDRPSISARDYVESLHQDSRATLLYGKNNVLVQPRDDMEAVPGYLSLHQTADVMTLKWTPNQLMNGSVGDLDYEKSVYWDYAVTIRLEEIVYLHCHQQVDSGGTVVLVSQDGIQRPPFRFPKGGHLLQFLSCLENGLLPHGQLDPPLWSQRGKGKVFPKLRKRSPQGSSESTSSDKEDDEATDYVFRIIYPGTQSEFVPQDLMDVSMNNLPPLWQPSPRKSSCSSCSQSGSADGGSTNGCNHERAPLKLLCDNMKYQILSRAFYGWLAYCRHLSTVRTHLSALVNHMIVSPDLPCDAGQGLTASIWEKYIQDSTTYPEQELLRLIYYGGVQPEIRRAVWPFLLGHYQFGMTEMERKEVDEQIHACYAQTMSEWLGCEAIVRQRERESHAAALAKCSSGASLDSHLHRMLHRDSTISNESSQSCSSGRQNLRLQSDSSSSTQVFESVDEVEQTEAEGRSEEKHPKIPNGNPANGTCSPDSGHPSSHNFSSGLSEHSEPSLSTEDSVLDAQRSLPAVFRPGDSSVEDGQSSEATTSRDEAPREELAVQDSLESDLLANESLEEFMSIPGSLDVALPEKDGAVMDGWPGEADKPSRADSEDNLSEEPEMESLFPALASLAVTSSANNEASPVSSSGVTYSPELLDLYTVNLHRIEKDVQRCDRSYWYFTAANLEKLRNIMCSYIWQHIEIGYVQGMCDLLAPLLVILDDEALAFSCFTELMKRMNQNFPHGGAMDTHFANMRSLIQILDSELFELMHQNGDYTHFYFCYRWFLLDFKRELVYDDVFSVWETIWAAKHVSSAHYVLFIALALVEVYRDIILENNMDFTDIIKFFNEMAERHNAKQILQLARDLVHKVQILIENK	1.34	1.5	0.707	1.4015	1.339	up
